Data reported in patent publication US20220363763A1 (ABL BIO, published 2022).

Experiments:
[1] = target: T1, human LAG3-His protein (Sinobio, 16498-H08H) (human, UniProt P18627 23-450); assay: ELISA on coated LAG3-His
T1 construct: also called human LAG3 protein; not shown: His tag
T1 sequence (looked up): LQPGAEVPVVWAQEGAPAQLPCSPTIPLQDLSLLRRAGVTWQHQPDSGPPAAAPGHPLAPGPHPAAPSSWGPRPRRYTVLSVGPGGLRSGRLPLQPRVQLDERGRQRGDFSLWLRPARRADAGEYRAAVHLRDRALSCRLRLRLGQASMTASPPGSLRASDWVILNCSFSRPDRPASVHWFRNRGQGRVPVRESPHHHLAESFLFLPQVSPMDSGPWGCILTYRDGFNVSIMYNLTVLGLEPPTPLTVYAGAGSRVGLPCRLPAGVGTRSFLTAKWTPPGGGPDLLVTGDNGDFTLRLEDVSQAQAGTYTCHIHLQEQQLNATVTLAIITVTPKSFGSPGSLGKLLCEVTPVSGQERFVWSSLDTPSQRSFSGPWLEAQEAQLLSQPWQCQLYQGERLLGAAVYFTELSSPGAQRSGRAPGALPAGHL
From the text: To evaluate the binding activity to PD-L1 and LAG3 of the bispecific antibodies (BsAb; H12x147 and 147xH12) prepared in Example 3, the BsAb were subjected to ELISA test.

human PD-L1-Fc protein = target: T2, human PD-L1-Fc protein (human, UniProt Q9NZQ7 19-239); assay: ELISA on coated PD-L1-Fc
T2 construct: Coated on ELISA plates; also called huPD-L1; not shown: Fc part
T2 sequence (Q9NZQ7 19-239 limits assumed): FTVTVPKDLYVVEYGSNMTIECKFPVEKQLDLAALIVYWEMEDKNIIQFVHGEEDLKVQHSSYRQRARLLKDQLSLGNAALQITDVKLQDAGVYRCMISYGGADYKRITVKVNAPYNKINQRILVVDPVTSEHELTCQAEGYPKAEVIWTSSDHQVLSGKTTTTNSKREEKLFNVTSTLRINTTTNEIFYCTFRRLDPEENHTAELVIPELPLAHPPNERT

B1: H12x147 (bispecific antibody, human IgG1, kappa, N297A)
heavy: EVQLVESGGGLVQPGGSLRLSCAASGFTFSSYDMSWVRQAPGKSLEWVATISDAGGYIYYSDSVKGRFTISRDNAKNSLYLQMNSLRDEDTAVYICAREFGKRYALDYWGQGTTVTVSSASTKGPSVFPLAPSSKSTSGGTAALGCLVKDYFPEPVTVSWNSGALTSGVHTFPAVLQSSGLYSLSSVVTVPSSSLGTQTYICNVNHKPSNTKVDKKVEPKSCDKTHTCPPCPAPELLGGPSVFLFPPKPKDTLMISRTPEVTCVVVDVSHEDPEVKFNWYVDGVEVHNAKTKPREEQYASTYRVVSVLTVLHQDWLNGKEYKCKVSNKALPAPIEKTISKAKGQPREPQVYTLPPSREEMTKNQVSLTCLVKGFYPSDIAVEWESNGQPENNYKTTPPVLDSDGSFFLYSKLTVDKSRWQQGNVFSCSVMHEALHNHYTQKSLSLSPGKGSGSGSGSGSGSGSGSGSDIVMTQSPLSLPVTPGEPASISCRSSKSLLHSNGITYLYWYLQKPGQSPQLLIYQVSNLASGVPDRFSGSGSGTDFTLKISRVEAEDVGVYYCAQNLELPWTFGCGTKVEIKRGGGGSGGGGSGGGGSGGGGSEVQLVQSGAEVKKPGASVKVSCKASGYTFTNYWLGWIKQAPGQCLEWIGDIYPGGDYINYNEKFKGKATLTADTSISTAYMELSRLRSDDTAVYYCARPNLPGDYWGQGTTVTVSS
light: DIQMTQSPSSLSASVGDRVTITCKASQDVTPAVAWYQQKPGKAPKLLIYSTSSRYTGVPSRFSGSGSGTDFTFTISSLQPEDIATYYCQQHYTTPLTFGQGTKLEIKRTVAAPSVFIFPPSDEQLKSGTASVVCLLNNFYPREAKVQWKVDNALQSGNSQESVTEQDSKDSTYSLSSTLTLSKADYEKHKVYACEVTHQGLSSPVTKSFNRGEC
notes: also called L1A3
[1]
  binding result: binds
Human PD-L1-Fc protein
  binding result: binds
